The record followed here is patent US20240400715A1 (VIBRANT PHARMA, published 2024).

B1: 208 (Fab (Heavy)-Knob+Fab (Light)-Hole-CEA) (bispecific antibody, human IgG4 S228P, kappa, F234A L235A)
heavy: EVKLLESGGGLVQPKGSLKLSCAASGFTFNTYAMNWVRQAPGKGLEWVARIRSKYNNYATYYADSVKDRFTISRDDSQSILYLQMNNLKTEDTAMYYCVRHGNFGNSYVSWFAYWGQGTLVTVSSASTKGPSVFPLAPCSRSTSESTAALGCLVKDYFPEPVTVSWNSGALTSGVHTFPAVLQSSGLYSLSSVVTVPSSSLGTKTYTCNVDHKPSNTKVDKRVESKYGPPCPPCPAPEAAGGPSVFLFPPKPKDTLMISRTPEVTCVVVDVSQEDPEVQFNWYVDGVEVHNAKTKPREEQFNSTYRVVSVLTVLHQDWLNGKEYKCKVSNKGLPSSIEKTISKAKGQPREPQVYTLPPCQEEMTKNQVSLWCLVKGFYPSDIAVEWESNGQPENNYKTTPPVLDSDGSFFLYSRLTVDKSRWQEGNVFSCSVMHEALHNHYTQKSLSLSL
light: QAVVTQESALTTSPGETVTLTCRSSTGAVTTSNYANWVQEKPDHLFTGLIGGTNKRAPGVPARFSGSLIGDKAALTITGAQTEDEAIYFCALWYSNLWVFGGGTKVEIKRTVAAPSVFIFPPSDEQLKSGTASVVCLLNNFYPREAKVQWKVDNALQSGNSQESVTEQDSKDSTYSLSSTLTLSKADYEKHKVYACEVTHQGLSSPVTKSFNRGECESKYGPPCPPCPAPEAAGGPSVFLFPPKPKDTLMISRTPEVTCVVVDVSQEDPEVQFNWYVDGVEVHNAKTKPREEQFNSTYRVVSVLTVLHQDWLNGKEYKCKVSNKGLPSSIEKTISKAKGQPREPQVCTLPPSQEEMTKNQVSLSCAVKGFYPSDIAVEWESNGQPENNYKTTPPVLDSDGSFFLVSRLTVDKSRWQEGNVFSCSVMHEALHNRFTQKSLSLSLGGGGSGGGGSEVQLVESGGGFVQAGESLTLSCTSSTLTFTPYRMAWYRQAPGKQRDLVADISSGDGRTTNYADFAKGRFTISRDNIKNTVFLRMTNLKPEDTAVYYCNTFVSFVGIARSWGQGTQVTVSS
notes: two-chain format: VL-CL fused to hole Fc and VHH
B2: 209 (Fab (Light)-Knob-CEA+Fab (Heavy)-Hole) (bispecific antibody, human IgG4 S228P, kappa, F234A L235A)
light: B1 light with C347Y, S352C, S364W, A366L, V405Y, R433H, F434Y
heavy: B1 heavy with Y354C, C359S, W371S, L373A, Y412V, H440R, Y441F
notes: two-chain format: VL-CL fused to knob Fc and VHH
B3: 205 (CEA-Fab-Knob-+Hole) (bispecific antibody, human IgG4 S228P, kappa, F234A L235A)
heavy: EVQLVESGGGFVQAGESLTLSCTSSTLTFTPYRMAWYRQAPGKQRDLVADISSGDGRTTNYADFAKGRFTISRDNIKNTVFLRMTNLKPEDTAVYYCNTFVSFVGIARSWGQGTQVTVSSGGGGSGGGGSEVKLLESGGGLVQPKGSLKLSCAASGFTFNTYAMNWVRQAPGKGLEWVARIRSKYNNYATYYADSVKDRFTISRDDSQSILYLQMNNLKTEDTAMYYCVRHGNFGNSYVSWFAYWGQGTLVTVSSASTKGPSVFPLAPCSRSTSESTAALGCLVKDYFPEPVTVSWNSGALTSGVHTFPAVLQSSGLYSLSSVVTVPSSSLGTKTYTCNVDHKPSNTKVDKRVESKYGPPCPPCPAPEAAGGPSVFLFPPKPKDTLMISRTPEVTCVVVDVSQEDPEVQFNWYVDGVEVHNAKTKPREEQFNSTYRVVSVLTVLHQDWLNGKEYKCKVSNKGLPSSIEKTISKAKGQPREPQVYTLPPCQEEMTKNQVSLWCLVKGFYPSDIAVEWESNGQPENNYKTTPPVLDSDGSFFLYSRLTVDKSRWQEGNVFSCSVMHEALHNHYTQKSLSLSL
chain: ESKYGPPCPPCPAPEAAGGPSVFLFPPKPKDTLMISRTPEVTCVVVDVSQEDPEVQFNWYVDGVEVHNAKTKPREEQFNSTYRVVSVLTVLHQDWLNGKEYKCKVSNKGLPSSIEKTISKAKGQPREPQVCTLPPSQEEMTKNQVSLSCAVKGFYPSDIAVEWESNGQPENNYKTTPPVLDSDGSFFLVSRLTVDKSRWQEGNVFSCSVMHEALHNRFTQKSLSLSL
light: QAVVTQESALTTSPGETVTLTCRSSTGAVTTSNYANWVQEKPDHLFTGLIGGTNKRAPGVPARFSGSLIGDKAALTITGAQTEDEAIYFCALWYSNLWVFGGGTKVEIKRTVAAPSVFIFPPSDEQLKSGTASVVCLLNNFYPREAKVQWKVDNALQSGNSQESVTEQDSKDSTYSLSSTLTLSKADYEKHKVYACEVTHQGLSSPVTKSFNRGEC
notes: VHH fused before VH of the heavy chain
B4: 206 (Knob+CEA-Fab-Hole) (bispecific antibody, human IgG4 S228P, kappa, F234A L235A)
chain: B3 chain with C131Y, S136C, S148W, A150L, V189Y, R217H, F218Y
heavy: B3 heavy with Y484C, C489S, W501S, L503A, Y542V, H570R, Y571F
light: B3 light
notes: as for B3
B5: 210 (Fab (Light)-Knob+Fab (Heavy)-Hole-CEA) (bispecific antibody, human IgG4 S228P, kappa, F234A L235A)
light: QAVVTQESALTTSPGETVTLTCRSSTGAVTTSNYANWVQEKPDHLFTGLIGGTNKRAPGVPARFSGSLIGDKAALTITGAQTEDEAIYFCALWYSNLWVFGGGTKVEIKRTVAAPSVFIFPPSDEQLKSGTASVVCLLNNFYPREAKVQWKVDNALQSGNSQESVTEQDSKDSTYSLSSTLTLSKADYEKHKVYACEVTHQGLSSPVTKSFNRGECESKYGPPCPPCPAPEAAGGPSVFLFPPKPKDTLMISRTPEVTCVVVDVSQEDPEVQFNWYVDGVEVHNAKTKPREEQFNSTYRVVSVLTVLHQDWLNGKEYKCKVSNKGLPSSIEKTISKAKGQPREPQVYTLPPCQEEMTKNQVSLWCLVKGFYPSDIAVEWESNGQPENNYKTTPPVLDSDGSFFLYSRLTVDKSRWQEGNVFSCSVMHEALHNHYTQKSLSLSL
heavy: EVKLLESGGGLVQPKGSLKLSCAASGFTFNTYAMNWVRQAPGKGLEWVARIRSKYNNYATYYADSVKDRFTISRDDSQSILYLQMNNLKTEDTAMYYCVRHGNFGNSYVSWFAYWGQGTLVTVSSASTKGPSVFPLAPCSRSTSESTAALGCLVKDYFPEPVTVSWNSGALTSGVHTFPAVLQSSGLYSLSSVVTVPSSSLGTKTYTCNVDHKPSNTKVDKRVESKYGPPCPPCPAPEAAGGPSVFLFPPKPKDTLMISRTPEVTCVVVDVSQEDPEVQFNWYVDGVEVHNAKTKPREEQFNSTYRVVSVLTVLHQDWLNGKEYKCKVSNKGLPSSIEKTISKAKGQPREPQVCTLPPSQEEMTKNQVSLSCAVKGFYPSDIAVEWESNGQPENNYKTTPPVLDSDGSFFLVSRLTVDKSRWQEGNVFSCSVMHEALHNRFTQKSLSLSLGGGGSGGGGSEVQLVESGGGFVQAGESLTLSCTSSTLTFTPYRMAWYRQAPGKQRDLVADISSGDGRTTNYADFAKGRFTISRDNIKNTVFLRMTNLKPEDTAVYYCNTFVSFVGIARSWGQGTQVTVSS
notes: two-chain format: VL-CL fused to knob Fc

Where a chain is given by its changes, count along the chain named.

The first experiment concerns the target T1, human CD3ε/δ (ACRO systems, CDD-H52W1) (human, UniProt P07766 23-126; P04234 22-105).
T1 construct: bought recombinant heterodimer; also called human CD3 epsilon/delta; Human CD3ε/CD3δ
The experiment in a line: serum-stability ELISA, Day 5 vs Day 0. On the technique in general: In an ELISA, binding on a coated surface is turned into a signal by an enzyme label.
Method: (§1) The samples to be tested were centrifuged at 4° C. at 12000 rpm for 30 minutes to remove the precipitate. 200 μl of each sample to be tested (0.5 mg/ml) was collected in a 1.5 ml Eppendorf tube. An equal volume of human serum (GEMINI, H2OYOOK) was added, mixed thoroughly, and the mixture was incubated in a 37° C. constant temperature CO₂ incubator. For a total of 10 days, 40 μl samples was aspirated every day and stored at −20° C.
(§2) Enzyme-linked immunosorbent assay (ELISA) was used to test the bispecific antibodies' binding to human CEA and human CD3 epsilon/delta antigen. The steps are as follows: the antigen human CD3ε/δ (ACRO systems, CDD-H52W1) and the recombinant tumor antigen human CEA (CEACAM-5/CD66e, ACRO systems, CE5-H5226) were diluted to 1 μg/ml with PBS, and then added to the 96-well plate at 100 μl per well. The wells were coated overnight at 4° C. After washing 3 times with 0.05% PBST, 200 μl 5% skimmed milk powder was added to each well and incubated at 37° C. for 2 h. After washing 3 times with 0.05% PBST, 100 μl primary antibody sample (10 μg/ml) was added to each well, and incubated at 37° C. for 2 h. After washing 3 times with 0.05% PBST, 100 μl (1:6000) diluted secondary antibody goat anti-human Fc-HRP (sigma, A2170) was added to each well, incubated at room temperature for 1 h. After washing 8 times with 0.05% PBST, 50 μl TMB color developing solution was added to each well, and incubated at room temperature for 10-15 min. 50 μl 1 mM HCl was added to each well to stop the color development. 450 nm Absorbance (OD) was read.
(§3) The binding of antibodies to antigen was calculated according to the following formula: Binding (%)=[(ODdayn−ODb)/(ODday0−ODb)]×100%. ODdayn: experimental well (the protein was stored in the serum for n days); ODday0: control well (the protein was not stored in the serum); ODb: blank well (no primary antibody added).
B1 showed a Binding % of 100%.

Take B2: the Binding % came to 108%.

With B3, the Binding % amounted to 117%.

Regarding B4, the Binding % was 102%.

In the case of B5, the Binding % came out at 97.3%.

For another experiment, the target named is T1, human CD3ε/δ (ACRO systems, CDD-H52W1). As to the kind of experiment: serum-stability ELISA, Day 6 vs Day 0.
Method: as §1, §2, §3
As for B1, the Binding % was 97.4%.

As to B2, the Binding % came to 105%.

The molecule B3 yielded a Binding % of 100%.

Molecule B4 yielded a Binding % of 99.3%.

Turning to B5, the Binding % was determined as 101%.

The next experiment shares this target. As to the kind of experiment: serum-stability ELISA, Day 7 vs Day 0.
Method: as §1, §2, §3
The molecule B1 came in with a Binding % of 95.9%.

With B2, the Binding % came out at 109%.

B3 registered a Binding % of 105%.

The molecule B4 yielded a Binding % of 100%.

For the molecule B5, the Binding % was 102%.

Another experiment has the same target. The experiment in a line: serum-stability ELISA, Day 2 vs Day 0.
Method: as §1, §2, §3
The molecule B1 yielded a Binding % of 96.1%.

Molecule B2 registered a Binding % of 103%.

B3 gave a Binding % of 99.3%.

With B4, the Binding % is 95.1%.

For the molecule B5, the Binding % is 102%.

The target is the same in a further experiment. The experiment in a line: serum-stability ELISA, Day 1 vs Day 0.
Method: as §1, §2, §3
On to B1, for which the Binding % worked out at 95.7%.

B2 yielded a Binding % of 102%.

B3: the Binding % amounted to 96.5%.

Consider B4, for which the Binding % stood at 95.1%.

On to B5, for which the Binding % worked out at 105%.

The target is the same in a further experiment. As to the kind of experiment: serum-stability ELISA, Day 10 vs Day 0.
Method: as §1, §2, §3
Take B1: the Binding % was 95.7%.

For the molecule B2, the Binding % turned out to be 107%.

The molecule B3 showed a Binding % of 105%.

In turn, B4 gave a Binding % of 91.6%.

B5 came in with a Binding % of 101%.

For a further experiment the target is unchanged. The experiment in a line: serum-stability ELISA, Day 0 (reference).
For the molecule B1, the Binding % stood at 100%.

B2 had a Binding % of 100%.

The molecule B3 had a Binding % of 100%.

With B4, the Binding % worked out at 100%.

B5: the Binding % was found to be 100%.

A further experiment shares this target. As to the kind of experiment: serum-stability ELISA, Day 9 vs Day 0.
Method: as §1, §2, §3
B1 showed a Binding % of 98.8%.

B2 showed a Binding % of 108%.

For the molecule B3, the Binding % was 105%.

For B4, the Binding % came out at 95.6%.

Molecule B5 returned a Binding % of 101%.
